B1: Fc fusion protein of anti-IL-5 single-domain antibody 4B12 (Fc fusion, not shown: a dimerising Fc or GST)
chain (part 1 of 2): QVQLVESGGGSVQPGGSLRLSCAASGNTFSFSTYCMGWFRQSPGKEREGSLATIYDGSTAYAGSVKGRFTVSVDNAKNILYLQMNNLKPEDTAMYYCASAKYCMFWSDPSYWGQGTQVTVSS
chain (part 2 of 2): HHHHHH
B2: Fc fusion protein of anti-IL-5 single-domain antibody 4D5 (Fc fusion, not shown: a dimerising Fc or GST)
chain (part 1 of 2): QVQLVESGGGSVQAGGSLRLSCAASGNTFSTSTYCMGWFRQSPGKEREGSLATIYDGSTAYAGSVKGRFTISVDNAKNILYLQMNNLKPEDTAMYYCAAAKYCMFWSDPSYWGQGTQVTVSS
chain (part 2 of 2): HHHHHH
B3: humanized Fc-fused single-domain antibody 1B3-V1 (Fc fusion, not shown: a dimerising Fc or GST)
chain (part 1 of 2): QVQLVESGGGLVQPGGSLRLSCAASGITASTSCMGWFRQAPGKGLEAVAATIYDGSTYYADSVKGRFTISRDNSKNTLYLQMNSLRAEDTAVYYCAAARYCMFWSHPSYWGQGTLVTVSS
chain (part 2 of 2): HHHHHH
B4: Fc fusion protein of anti-IL-5 single-domain antibody 3G12 (Fc fusion, not shown: a dimerising Fc or GST)
chain (part 1 of 2): QVQLVESGGGSVQAGGSLRLSCVASGLTLNDVSMAWFRQAPGKEREEVAGIDIDGLISYADSVKGRFTISKDNAQNTLYLQMNSLKPEDTAMYSCAAVRLYFSSSRNQYKYEGQGTQVTVSS
chain (part 2 of 2): HHHHHH
B5: Fc fusion protein of anti-IL-5 single-domain antibody 4C3 (Fc fusion, not shown: a dimerising Fc or GST)
chain (part 1 of 2): QVQLVESGGGSVQAGGSLRLSCVASGLTLNDVSMAWFRQAPGKEREEVAGIDIDGLISYADPVKGRFTISKDNAQNTMYLQMNSLKPEDTAMYSCAAVRLYFSSSRNQYKYEGQGTQVTVSS
chain (part 2 of 2): HHHHHH
B6: Fc fusion protein of anti-IL-5 single-domain antibody 4G8 (Fc fusion, not shown: a dimerising Fc or GST)
chain (part 1 of 2): QVQLVESGGGSVQAGGSLRLSCAASGITSSTSCMGWFRQSPGKEREGSLATIYDGAISYADSVKGRFTISVDNAKNILYLQMNNLKPEDTAMYYCAAAKYCMFWSDPSYWGQGTQVTVSS
chain (part 2 of 2): HHHHHH
B7: humanized Fc-fused single-domain antibody 1B3-V3 (Fc fusion, not shown: a dimerising Fc or GST)
chain (part 1 of 2): QVQLVESGGGSVQAGGSLRLSCAASGITASTSCMGWFRQSPGKEREGSLATIYDASTSYADSVKGRFTISVDNAKNILYLQMNNLKPEDTAMYYCAAARYCMFWSHPSYWGQGTQVTVSS
chain (part 2 of 2): HHHHHH
B8: humanized Fc-fused single-domain antibody 1B3-V5 (Fc fusion, not shown: a dimerising Fc or GST)
chain (part 1 of 2): QVQLVESGGGSVQAGGSLRLSCAASGITASTSCMGWFRQSPGKEREGSLATIYDGSTSYADSVKGRFTISRDNSKNILYLQMNNLRAEDTAVYYCAAARYCMFWSHPSYWGQGTQVTVSS
chain (part 2 of 2): HHHHHH
B9: humanized Fc-fused single-domain antibody 1B3-V4 (Fc fusion, not shown: a dimerising Fc or GST)
chain (part 1 of 2): QVQLVESGGGSVQAGGSLRLSCAASGITASTSCMGWFRQSPGKEREGSLATIYDASTSYADSVKGRFTISRDNAKNILYLQMNNLRAEDTAVYYCAAARYCMFWSHPSYWGQGTQVTVSS
chain (part 2 of 2): HHHHHH
B10: Fc fusion protein of anti-IL-5 single-domain antibody 2F7 (Fc fusion, not shown: a dimerising Fc or GST)
chain (part 1 of 2): QVQLVESGGGSVQAGGSLRLSCAASGITASTSCMGWFRQSPGKEREGSLATIYDGSTSYADSVKGRFTISVDNAKNILYLQMNNLKPADTAMYYCAAAKYCMFWSHPSYWGQGTQVTVSS
chain (part 2 of 2): HHHHHH
B11: Fc fusion protein of anti-IL-5 single-domain antibody 4H2 (Fc fusion, not shown: a dimerising Fc or GST)
chain (part 1 of 2): QVQLVESEGGSVQAGGSLRLSCAVSGITSSTACMGWFRQSPGKEREGSLATIYDGSISYADSVKGRFTISVDNAKNILYLQMNNLKPEDTAMYYCAAAKYCMFWSDPSYWGQGTQVTVSS
chain (part 2 of 2): HHHHHH
B12: Fc fusion protein of anti-IL-5 single-domain antibody 1B8 (Fc fusion, not shown: a dimerising Fc or GST)
chain (part 1 of 2): QVQLVESGGGSVQAGGSLRLSCAASGITASTSCMGWFRQSPGKEREGSLATIYDGSTSYADSVKGQFTISVDNAKNILYLQMNNLKPEDTAMYYCAAAKYCMFWSHPSYWGQGTQVTVSS
chain (part 2 of 2): HHHHHH
B13: Fc fusion protein of anti-IL-5 single-domain antibody 2G6 (Fc fusion, not shown: a dimerising Fc or GST)
chain (part 1 of 2): QVQLVESGGGSVQAGGSLRLSCAASGITSSTSCMGWFRQSPGKEREGSLATIYDGNISYADSVKGRFTISVDNAKNILYLQMNNLKPEDTAMYYCAAAKYCMFWSDPSYWGQGTQVTVSS
chain (part 2 of 2): HHHHHH
B14: Tab2 (control antibody 2), reslizumab (antibody, INN chains, looked up, V domains shown)
VH: EVQLVESGGGLVQPGGSLRLSCAVSGLSLTSNSVNWIRQAPGKGLEWVGLIWSNGDTDYNSAIKSRFTISRDTSKSTVYLQMNSLRAEDTAVYYCAREYYGYFDYWGQGTLVTVSS
VL: DIQMTQSPSSLSASVGDRVTITCLASEGISSYLAWYQQKPGKAPKLLIYGANSLQTGVPSRFSGSGSATDYTLTISSLQPEDFATYYCQQSYKFPNTFGQGTKVEVK
B15: Fc fusion protein of anti-IL-5 single-domain antibody 1F4 (Fc fusion, not shown: a dimerising Fc or GST)
chain (part 1 of 2): QVQLVESGGGSAQAGGSLRLSCAASGNTLDLMAWFRQAPGKEREGVAGIYSSGTTYYADSVKGRFTVSRDNAKNTVYLQMNSLKPEDAAMYYCAAKVSWYGRWYQSETYEYWGQGTQVTVSS
chain (part 2 of 2): HHHHHH
B16: Tab1 (control antibody 1), mepolizumab (antibody, INN chains, looked up, V domains shown)
VH: QVTLRESGPALVKPTQTLTLTCTVSGFSLTSYSVHWVRQPPGKGLEWLGVIWASGGTDYNSALMSRLSISKDTSRNQVVLTMTNMDPVDTATYYCARDPPSSLLRLDYWGRGTPVTVSS
VL: DIVMTQSPDSLAVSLGERATINCKSSQSLLNSGNQKNYLAWYQQKPGQPPKLLIYGASTRESGVPDRFSGSGSGTDFTLTISSLQAEDVAVYYCQNVHSFPFTFGGGTKLEIK

One assay deals with human recombinant IL-5 protein with a histidine tag at carboxyl terminal (human) (UniProt P05113). In words: cell-based or functional assay.
Turning to B1, the EC50 for neutralizing IL-5-induced TF-1 cell proliferation turned out to be 0.196.

Take B2: the EC50 for neutralizing IL-5-induced TF-1 cell proliferation came to 0.427.

Regarding B3, the EC50 for neutralizing IL-5-induced TF-1 cell proliferation amounted to 2.82.

B4: the EC50 for neutralizing IL-5-induced TF-1 cell proliferation is 2.09.

In the case of B5, the EC50 for neutralizing IL-5-induced TF-1 cell proliferation worked out at 4.4.

Regarding B6, the EC50 for neutralizing IL-5-induced TF-1 cell proliferation was found to be 0.176.

In the case of B7, the EC50 for neutralizing IL-5-induced TF-1 cell proliferation is 0.219.

For the molecule B8, the EC50 for neutralizing IL-5-induced TF-1 cell proliferation was 0.274.

Regarding B9, the EC50 for neutralizing IL-5-induced TF-1 cell proliferation was determined as 0.237.

Regarding B10, the EC50 for neutralizing IL-5-induced TF-1 cell proliferation was 0.15.

With B11, the EC50 for neutralizing IL-5-induced TF-1 cell proliferation amounted to 0.189.

Turning to B12, the EC50 for neutralizing IL-5-induced TF-1 cell proliferation was found to be 0.175.

As to B13, the EC50 for neutralizing IL-5-induced TF-1 cell proliferation was 0.188.

B14: the EC50 for neutralizing IL-5-induced TF-1 cell proliferation is 0.0664.

B15: the EC50 for neutralizing IL-5-induced TF-1 cell proliferation turned out to be 0.1.

Turning to B16, the EC50 for neutralizing IL-5-induced TF-1 cell proliferation came to 0.234.

Another assay shares this target. In words: BLI (Octet 96), binding molecule on sensor, IL-5 antigen 200 nM and 2-fold dilutions. (BLI is a label-free optical method that tracks binding on a fibre tip over time.)
Broadly, the Kd is the free concentration of one partner at which half of the binding sites on the other are occupied at equilibrium, for simple one-to-one binding. The term koff denotes a measure of how fast the partners let go of each other. By kon is commonly meant a measure of how fast the partners come together. Turning to B16, the Kd was 0.99 nM, the koff came out at 8.22e-05 s⁻¹ and the kon was found to be 82600 M⁻¹ s⁻¹.

The target of another assay is IL-5 protein (Novoprotein, Cat #CS 33) (human) (UniProt P05113). Briefly: indirect ELISA on IL-5 protein, antibody titrated, OD450. (In general: In an ELISA, binding on a coated surface is turned into a signal by an enzyme label.)
By EC50 (read off the curve) is commonly meant the concentration giving half of the maximal effect. Lower therefore signals a more potent agent. For B14, the concentration giving a half-maximal response (EC50 (read off the curve)) is 0.8 nM.

The values above are taken from patent US20230235039A1.
